In patent publication US20250389714A1, “PHARMACEUTICAL COMPOSITION FOR TREATING DISEASES RELATED TO TAUOPATHY” (SEOUL NATIONAL UNIVERSITY R&DB FOUNDATION, priority 2021, published 2025):
Entries after “also recorded” stand apart in the source; their conditions may differ. One block for each molecule: values may come before it.

Key:
[1] = molecular target: human RAGE (receptor for advanced glycation end products), full-length, overexpressed in SH-SY5Y cells (human) (UniProt Q15109); assay: cell-based or functional assay
RAGE = molecular target: T1, RAGE (Homo sapiens, UniProt Q15109); assay: Cell binding assay and calculation of dissociation constant (Kd) for RAGE binding; details: monomer equivalents of total Aβ42 or total tau; biotin-labeled oligomers, RAGE-overexpressing SH-SY5Y cells, 2 hours
T1 construct: RFP-tagged RAGE full-length (FL) or cytoplasmic domain deletion mutants (ΔCyto); expressed in transfected cells; host or cells: SH-SY5Y human neuroblastoma cells
Method: FIG. 2c is a graph showing the results of analyzing RAGE binding affinities of tau oligomers (oTau) and Aβ42 oligomers (oAβ42). RAGE-overexpressing SH-SY5Y cells were treated with biotin-tau or Aβ42 oligomers for 2 hours, and the cell-bound biotin signal intensities in FIG. 12a were measured. The data were presented as mean±SEM (n=3-5), and the Kd of binding values were obtained from nonlinear regression analysis of saturated binding.
The purified tau monomers of the present invention were biotinylated using the Ez-Link Sulfo-NHS-LC-Biotinylation kit (Thermo Scientific) and then fibrillated as described above to form oligomers and fibrils. SH-SY5Y cells were transfected with RAGE cDNA for 24 hours and incubated with biotin-tau protein for 2 hours. Primary cortical neurons from WT and Rage KO mice (DIV 7) were then incubated with various concentrations of biotin-tau oligomers for 24 hours to estimate the Kd value for tau binding to RAGE. Cells were washed with Tris-buffered saline (TBS) and fixed with 4% paraformaldehyde for 20 min. The cells were then blocked with 10% FBS and 0.1% Triton X-100 in TBS for 1 hour and incubated with streptavidin-alkaline phosphatase conjugate (1:2000, Roche) at 4° C. for 16 hours. After washing with TBS, bound biotin-tau was visualized for 10 min using the […] liquid substrate system (Sigma-Aldrich). Images were acquired using INCell Analyzer 2000, and cell-bound biotin signals were measured using Image J. Kd values estimated for RAGE-binding were obtained from nonlinear regression analysis of saturated binding using Prism (GraphPad Software).

[2] = system: primary cortical neurons or hippocampal neurons; assay: Tau infection assay in primary cultured neurons; details: 500 nM DyLight 488-tau oligomers, 24 hours
[3] = system: RAGE-expressing SH-SY5Y cells; assay: Tau infection (intracellular DyLight 488-tau oligomers) in RAGE-expressing SH-SY5Y cells; format: cell-based, human; details: increasing concentrations of antagonist, 4 hours, 500 nM DyLight 488-tau oligomers
Method: (right) for 4 hours in the presence of 500 nM DyLight 488-tau or 125 nM FITC-Aβ42 oligomers. Fluorescence images were acquired, and intracellular DyLight 488 and FITC intensities were measured. The data were presented as mean±SEM (n=4).

rTg4510 mice = assay: Behavioral tests (Y-maze, novel object recognition, passive avoidance) in rTg4510 mice; format: in vivo, mouse; details: 1 mg/kg/day intraperitoneally, daily for 2.5 months from 2 months of age; tests at 4.5 months
[4] = system: RAGE-overexpressing SH-SY5Y cells; assay: Competition of tau oligomers and Aβ42 oligomers for uptake in RAGE-overexpressing SH-SY5Y cells; format: cell-based, human; details: increasing concentrations of DyLight 594-tau oligomers with 125 nM FITC-Aβ42 oligomers, 2 hours
Method: FIG. 12b is a graph showing the results of analyzing […] and FITC intensities in RAGE-overexpressing SH-SY5Y cells. The cells were treated with increasing concentrations of DyLight 594-tau oligomers (red) in the presence of 125 nM FITC-Aβ42 oligomers (green) for 2 hours. Fluorescence images were acquired, and intracellular DyLight 594 and FITC intensities were measured. The data were presented as mean±SEM (n=3).

[5] = molecular target: T2, high molecular weight (HMW, 10-20 units) tau oligomers of 6xHis tagged human 0N4R tau (human, UniProt P10636-6 1-383, biotinylated or labelled with DyLight 488, depending on the assay; sites not stated); assay: cell binding assay: biotin-labelled HMW tau oligomers for 24 h on primary cortical neurons, streptavidin-alkaline phosphatase, BCIP/NBT; nonlinear regression of saturation binding; dashed ΔRage curve, whose points equal WT minus Rage KO; concentration as tau monomer equivalent
T2 construct: also called HMW tau oligomers; not shown: 6xHis tag from the pET-His vector

[6] = molecular target: T3, low molecular weight (LMW, 2-4 units) tau oligomers of 6xHis tagged human 0N4R tau (human, UniProt P10636-6 1-383, biotinylated or labelled with DyLight 488, depending on the assay; sites not stated); assay: cell binding assay: biotin-labelled LMW tau oligomers for 24 h on primary cortical neurons, streptavidin-alkaline phosphatase, BCIP/NBT; nonlinear regression of saturation binding; dashed ΔRage curve, whose points equal WT minus Rage KO; concentration as tau monomer equivalent
T3 construct: also called LMW tau oligomers; not shown: 6xHis tag from the pET-His vector
T3 sequence (P10636 other isoform, or with tags, fused parts or gaps): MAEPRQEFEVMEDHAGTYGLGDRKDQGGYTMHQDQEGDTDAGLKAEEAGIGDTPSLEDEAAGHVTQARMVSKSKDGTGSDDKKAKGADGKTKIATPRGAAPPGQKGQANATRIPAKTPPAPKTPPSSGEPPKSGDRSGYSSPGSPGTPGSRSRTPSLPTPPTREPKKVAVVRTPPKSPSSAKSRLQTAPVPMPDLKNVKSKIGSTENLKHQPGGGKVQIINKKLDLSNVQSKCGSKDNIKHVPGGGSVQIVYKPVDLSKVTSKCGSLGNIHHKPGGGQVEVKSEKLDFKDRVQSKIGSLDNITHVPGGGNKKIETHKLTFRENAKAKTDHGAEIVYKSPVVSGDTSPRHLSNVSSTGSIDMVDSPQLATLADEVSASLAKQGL

T1 sequence (Q15109 23-404): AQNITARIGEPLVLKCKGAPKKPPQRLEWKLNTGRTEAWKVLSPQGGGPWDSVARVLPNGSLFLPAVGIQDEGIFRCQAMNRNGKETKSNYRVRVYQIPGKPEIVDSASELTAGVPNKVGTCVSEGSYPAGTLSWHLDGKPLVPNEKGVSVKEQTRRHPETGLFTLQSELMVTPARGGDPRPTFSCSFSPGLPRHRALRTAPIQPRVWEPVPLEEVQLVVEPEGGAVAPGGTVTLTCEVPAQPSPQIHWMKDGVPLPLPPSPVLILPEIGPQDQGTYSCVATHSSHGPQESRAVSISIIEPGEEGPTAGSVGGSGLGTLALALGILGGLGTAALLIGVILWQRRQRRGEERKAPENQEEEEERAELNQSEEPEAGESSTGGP
Sequence of human RAGE (receptor for advanced glycation end products), full-length, overexpressed in SH-SY5Y cells (human) (Q15109 23-404): as above
T2 sequence (P10636 other isoform, or with tags, fused parts or gaps): as the sequence (P10636 other isoform, or with tags, fused parts or gaps) above

Molecule: heparin
tau oligomer transfection into Rage KO neurons ([2]; Rage KO neurons, 15 U/ml heparin): efficiently blocked
neuronal uptake of tau oligomers into WT neurons ([2]; WT neurons, 15 U/ml heparin): reduced neuronal uptake of tau oligomers

Molecule: O=C(c1ccc(Cl)cc1)N(Cc1ccccc1)C1CCCCC1 [FPS-ZM1]
tau infection into neurons ([2]; WT cortical neurons, 1 μM antagonist): inhibited tau infection; also recorded: reduces neuronal tau infection
tau infection into RAGE-expressing SH-SY5Y cells [3]: inhibited tau infection
cognitive function (spatial and working memory) of rTg4510 mice (rTg4510 mice): significantly alleviated cognitive impairment; also recorded: significant retention of spatial and working memory; also recorded: ameliorated the behavioral impairment

Molecule: tau oligomers: oligomers of recombinant 6×His tagged human 0N4R tau formed with heparin
intracellular transfection of Aβ42 oligomers [4]: efficiently reduced the intracellular transfection of Aβ42 oligomers

Molecule: HMW tau oligomers: high molecular weight tau oligomers (10-20 units) of recombinant human 0N4R tau
Kd (RAGE): 51 nM

More lines, now with the values ahead:

Intracellular DyLight 488 Intensities (AU) [1]: 9.55 AU
Molecule: DyLight 488-tau aggregates (His-tagged human tau aggregated with heparin, used in the cDNA screen) (from UniProt P10636 1-383) (ligand)

Kd (RAGE): 205 nM
Molecule: LMW tau oligomers: low molecular weight tau oligomers (2-4 units) of recombinant human 0N4R tau

Kd (RAGE): 17 nM
Molecule: Aβ42 oligomers: oligomers prepared from synthetic biotin- or FITC-labeled Aβ42 peptide (rPeptide)

Kd [5]: 25 nM
Kd [6]: 43.5 nM
B1: mouse RAGE, endogenous, on primary cultured WT mouse neurons (against Rage KO neurons) (receptor, UniProt Q62151 23-402, looked up)
chain: GQNITARIGEPLVLSCKGAPKKPPQQLEWKLNTGRTEAWKVLSPQGGPWDSVARILPNGSLLLPATGIVDEGTFRCRATNRRGKEVKSNYRVRVYQIPGKPEIVDPASELTASVPNKVGTCVSEGSYPAGTLSWHLDGKLLIPDGKETLVKEETRRHPETGLFTLRSELTVIPTQGGTHPTFSCSFSLGLPRRRPLNTAPIQLRVREPGPPEGIQLLVEPEGGIVAPGGTVTLTCAISAQPPPQVHWIKDGAPLPLAPSPVLLLPEVGHEDEGTYSCVATHPSHGPQESPPVSIRVTETGDEGPAEGSVGESGLGTLALALGILGGLGVVALLVGAILWRKRQPRREERKAPESQEDEEERAELNQSEEAEMPENGAGGP
notes: whole, on cells
